Test results taken from the supplement of paper PMC10126150.
± gives the standard deviation of the averaged measurements.

Test system: ATP
Assay: switch fluorescence ratio, 500 uM ATP over buffer (Cy3 cluster intensity, sum of 5 cycles each) (fold (ratio)); higher = stronger signal-on switching upon ATP binding; sequences stand for … in TCGTCGGCAGCGTCAGATGTGTATAAGAGACAGTTTTTTTTTTTTTTTTTTTTTTTTT…TC
Settings: aptamer strand: ATP DNA aptamer (quencher-CACCTGGGGGAGTATTGCGGAGGAAGG + anchor), 100 nM annealed; ATP concentration: 500 uM
Method in brief: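 Between each of five buffer/ATP cycles, the flow-cell was stripped with NaOH and re-annealed. Each cycle imaged Cy3-labelled switching-strand clusters, annealed to 100 nM quencher-labelled ATP aptamer on a modified Illumina MiSeq flow-cell, first in selection buffer and then after 15 min with 500 uM ATP at 22 °C. The fluorescence ratio is summed target-cycle over summed buffer-cycle Cy3 intensity per cluster, averaged per switch-domain sequence, with clusters outside 100-1000 RFU excluded.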
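Further: ATP exposure 15 min at 22 °C before imaging.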

Sequence | switch fluorescence ratio
AGGTAGGCCA | 0.951 ± 0.026
AGGTAGGCCT | 0.991 ± 0.025
AGGTAGGTAA | 1.03 ± 0.054
AGGTAGTGGG | 0.974 ± 0.029
AGGTAGTGTC | 1.03 ± 0.023
AGGTAGTGTG | 0.989 ± 0.014
AGGTATAAGC | 0.994 ± 0.043
AGGTATCAAT | 1 ± 0.053
AGGTATGGCC | 1.04 ± 0.091
AGGTATGGTT | 0.984 ± 0.024
AGGTCAACCG | 1.02 ± 0.02
AGGTCACAG | 1 ± 0.03
AGGTCCGGTA | 1.01 ± 0.011
AGGTCGCCTG | 1.031 ± 0.0069
AGGTCGCGGT | 0.994 ± 0.025
AGGTCGGACA | 1.006 ± 0.0094
AGGTCGGGGA | 1.05 ± 0.056
AGGTCGGTCT | 0.995 ± 0.058
AGGTCGTTTT | 0.991 ± 0.027
AGGTCTACTA | 1.05 ± 0.059
AGGTGAAGGG | 1.02 ± 0.018
AGGTGAGGGT | 1.022 ± 0.0047
AGGTGAGGTA | 1 ± 0.019
AGGTGATAGG | 0.9825 ± 0.0059
AGGTGCATAC | 1.45 ± 0.32

Sequence | switch fluorescence ratio
AGGTGCCAGG | 1.07 ± 0.036
AGGTGGAAAC | 1.01 ± 0.048
AGGTGGGCAG | 0.984 ± 0.018
AGGTGGGGAG | 0.998 ± 0.041
AGGTGGGTG | 1.04 ± 0.1
AGGTGGTCTG | 0.9885 ± 0.0047
AGGTGTAGCA | 1.02 ± 0.051
AGGTGTGAGA | 1.06 ± 0.044
AGGTGTGTTG | 0.984 ± 0.034
AGGTTAAGTT | 0.989 ± 0.021
AGGTTAGAAG | 1.006 ± 0.0014
AGGTTAGCGT | 0.9946 ± 0.0013
AGGTTAGGG | 1 ± 0.064
AGGTTAGGTG | 1.42 ± 0.34
AGGTTAGTAG | 0.973 ± 0.0052
AGGTTAGTCG | 1.01 ± 0.032
AGGTTATTTT | 0.992 ± 0.04
AGGTTCACTT | 0.998 ± 0.025
AGGTTCATTG | 0.975 ± 0.021
AGGTTCCTAG | 0.9775 ± 0.0049
AGGTTCGG | 0.9937 ± 0.0069
AGGTTCTCGG | 0.967 ± 0.026
AGGTTGAAGT | 0.988 ± 0.011
AGGTTGCGAG | 0.989 ± 0.019
AGGTTGGATC | 0.995 ± 0.088

Sequence | switch fluorescence ratio
AGGTTGGCAA | 1.07 ± 0.14
AGGTTGGTAA | 0.969 ± 0.01
AGGTTTAATT | 1.01 ± 0.015
AGGTTTGATC | 1.006 ± 0.0096
AGGTTTTTAT | 1.06 ± 0.16
AGGTTTTTGG | 0.963 ± 0.012
AGGTTTTTTG | 0.995 ± 0.016
AGTAAAAATG | 0.982 ± 0.027
AGTAAAAGTT | 0.989 ± 0.052
AGTAAAGATT | 0.9995 ± 0.0041
AGTAAAGGCC | 1.02 ± 0.08
AGTAAAGTCT | 1.04 ± 0.035
AGTAAATTTA | 1.001 ± 0.0046
AGTAAGAGGG | 1.01 ± 0.012
AGTAAGGGGC | 0.98 ± 0.019
AGTAAGGTTG | 0.961 ± 0.054
AGTAAGTTGG | 0.967 ± 0.022
AGTAATATAT | 0.976 ± 0.028
AGTAATGTGC | 0.996 ± 0.022
AGTACCATTG | 0.997 ± 0.015
AGTACGCAAG | 1.12 ± 0.039
AGTACGTGCG | 0.9781 ± 0.0081
AGTACTAAAG | 1.01 ± 0.033
AGTAGAAGAT | 0.9552 ± 0.0071
AGTAGCGTCG | 0.985 ± 0.048

Sequence | switch fluorescence ratio
AGTAGGAGCT | 0.962 ± 0.026
AGTAGGCCTA | 1.04 ± 0.025
AGTAGGCGGT | 0.993 ± 0.023
AGTAGGGGCG | 1.03 ± 0.033
AGTAGGGGGC | 1 ± 0.035
AGTAGGGGGG | 0.988 ± 0.033
AGTAGTCGTC | 0.99 ± 0.058
AGTAGTGAGG | 0.979 ± 0.017
AGTAGTTCGG | 1.019 ± 0.0075
AGTAGTTGAA | 0.988 ± 0.044
AGTAGTTTCG | 0.983 ± 0.037
AGTATAGGGC | 0.989 ± 0.049
AGTATAGTGG | 1.03 ± 0.022
AGTATATGCC | 1 ± 0.034
AGTATATTGG | 0.99 ± 0.044
AGTATGGCGG | 0.975 ± 0.068
AGTATTGGTG | 0.956 ± 0.026
AGTCAAAAAG | 0.985 ± 0.051
AGTCACAGCT | 0.982 ± 0.032
AGTCACGGGT | 1.03 ± 0.016
AGTCACGTAG | 1.03 ± 0.019
AGTCATCGGC | 1.01 ± 0.056
AGTCATTATG | 1 ± 0.036
AGTCCGATGC | 1.51 ± 0.17
AGTCCGGGTT | 0.991 ± 0.036

Sequence | switch fluorescence ratio
AGTCCTCGGA | 0.96685 ± 0.00022
AGTCCTTTT | 0.9882 ± 0.0095
AGTCGACTGT | 0.956 ± 0.02
AGTCGAGGGG | 1.01 ± 0.02
AGTCGCCTGG | 1.003 ± 0.002
AGTCGGAAAG | 1.02 ± 0.015
AGTCGGATGT | 0.989 ± 0.023
AGTCGGGCGC | 0.983 ± 0.051
AGTCGGGGGG | 0.989 ± 0.021
AGTCGGTGCA | 0.9855 ± 0.0013
AGTCGGTTAA | 1.02 ± 0.046
AGTCGTATTT | 0.963 ± 0.019
AGTCGTGCGG | 0.988 ± 0.037
AGTCGTTTGC | 0.938 ± 0.061
AGTCTAAATA | 1.02 ± 0.02
AGTCTAGAGA | 1.015 ± 0.0095
AGTCTGTAGT | 0.981 ± 0.036
AGTCTTGGTG | 0.973 ± 0.018
AGTGAAAGTT | 1 ± 0.012
AGTGAGCTAT | 1.01 ± 0.018
AGTGAGGTGC | 1.02 ± 0.01
AGTGAGTCGT | 0.961 ± 0.035
AGTGAGTTTT | 1.03 ± 0.024
AGTGATATGA | 0.9882 ± 0.0021
AGTGATTTCG | 1.01 ± 0.043

Sequence | switch fluorescence ratio
AGTGCCGTAA | 1.025 ± 0.0056
AGTGCGGACA | 1 ± 0.051
AGTGCGGGGG | 1.036 ± 0.0073
AGTGCGTTTC | 0.996 ± 0.031
AGTGCTAGGG | 1 ± 0.024
AGTGGATTGT | 1.01 ± 0.046
AGTGGCAGTG | 1 ± 0.022
AGTGGGCAGG | 1.04 ± 0.02
AGTGGGGCT | 0.9794 ± 0.0071
AGTGGGGGTT | 0.983 ± 0.019
AGTGGGGTTA | 0.999 ± 0.04
AGTGGTACCG | 0.99 ± 0.024
AGTGGTGGGA | 1.01 ± 0.033
AGTGGTGGGC | 0.979 ± 0.056
AGTGGTGGTG | 0.9902 ± 0.0039
AGTGGTTTAT | 0.985 ± 0.014
AGTGTACTAG | 1.045 ± 0.0022
AGTGTAGAGC | 0.975 ± 0.017
AGTGTCAGAA | 0.9896 ± 0.0084
AGTGTCCGAT | 0.9895 ± 0.0053
AGTGTCCTGG | 0.986 ± 0.013
AGTGTGACAG | 0.987 ± 0.018
AGTGTGAGGC | 1.03 ± 0.028
AGTGTGGCCT | 1 ± 0.025
AGTGTGGGCA | 0.965 ± 0.026

Sequence | switch fluorescence ratio
AGTGTTCGCG | 1 ± 0.015
AGTGTTCGTC | 1.05 ± 0.011
AGTGTTGGGT | 1.02 ± 0.01
AGTGTTTGGT | 0.989 ± 0.021
AGTGTTTTTG | 0.9936 ± 0.0011
AGTTAAAGGT | 0.992 ± 0.023
AGTTAACCGG | 1.006 ± 0.0027
AGTTACGCGC | 1.04 ± 0.032
AGTTACTGGG | 1.06 ± 0.046
AGTTAGAGGT | 1.05 ± 0.018
AGTTAGAGTC | 0.99925 ± 0.00026
AGTTAGATCT | 1.005 ± 0.009
AGTTAGGCAA | 1.01 ± 0.014
AGTTAGTATG | 0.979 ± 0.032
AGTTAGTTGT | 1 ± 0.028
AGTTATGTGG | 1 ± 0.056
AGTTATTATT | 0.963 ± 0.0055
AGTTATTGTG | 1.04 ± 0.094
AGTTCTGGCC | 1.03 ± 0.068
AGTTGAACCA | 1 ± 0.012
AGTTGAGAGG | 0.972 ± 0.0088
AGTTGAGCAA | 1.29 ± 0.048
AGTTGATCCC | 1.02 ± 0.025
AGTTGATTGG | 0.983 ± 0.027
AGTTGCCGCG | 0.996 ± 0.012

Sequence | switch fluorescence ratio
AGTTGCCTG | 0.997 ± 0.08
AGTTGCGTTG | 0.996 ± 0.015
AGTTGCTAAG | 0.986 ± 0.035
AGTTGGAAAG | 0.977 ± 0.013
AGTTGGAGTT | 0.978 ± 0.043
AGTTGGGGCT | 1.01 ± 0.023
AGTTGGGTCA | 0.993 ± 0.044
AGTTGGGTGT | 1.01 ± 0.013
AGTTGTGCGT | 0.981 ± 0.012
AGTTGTTGGT | 1.01 ± 0.014
AGTTGTTTG | 1.002 ± 0.0099
AGTTGTTTTG | 0.998 ± 0.015
AGTTTAAGAA | 0.98 ± 0.031
AGTTTAGAAT | 1.001 ± 0.0052
AGTTTAGGTA | 1.01 ± 0.052
AGTTTATCGT | 1.03 ± 0.043
AGTTTGACCT | 1.15 ± 0.032
AGTTTGACTC | 0.997 ± 0.026
AGTTTGCTTT | 0.995 ± 0.035
AGTTTGGGTG | 1.01 ± 0.0051
AGTTTGTCAT | 0.967 ± 0.032
AGTTTTCCAT | 1.0004 ± 0.00055
AGTTTTGGGC | 0.976 ± 0.016
AGTTTTGGTC | 1.002 ± 0.0056
AGTTTTTGGG | 0.97 ± 0.037
